Reference: paper PMC5734868 (ACS infectious diseases, 2017)

Biological target: the molecule itself
Experiment: SDS-PAGE of semi-denatured protein

B1: PanD 114Stop (aspartate decarboxylase domain without the C-terminal tail) (domain or fragment)
chain: MLRTMLKSKIHRATVTCADLHYVGSVTIDADLMDAADLLEGEQVTIVDIDNGARLVTYAITGERGSGVIGINGAAAHLVHPGDLVILIAYATMDDARARTYQPRIVFVDAYNKP
Question: Does B1 bind?
Answer: binds
